T1: SND1 (Mus musculus, UniProt Q78PY7)
T1 construct: endogenous in cells; host or cells: PyMT;Mtdh−/− (A9) or PyMT;Mtdh+/+ (A13) mouse mammary epithelial/tumor cells
T1 sequence (Q78PY7 1-910): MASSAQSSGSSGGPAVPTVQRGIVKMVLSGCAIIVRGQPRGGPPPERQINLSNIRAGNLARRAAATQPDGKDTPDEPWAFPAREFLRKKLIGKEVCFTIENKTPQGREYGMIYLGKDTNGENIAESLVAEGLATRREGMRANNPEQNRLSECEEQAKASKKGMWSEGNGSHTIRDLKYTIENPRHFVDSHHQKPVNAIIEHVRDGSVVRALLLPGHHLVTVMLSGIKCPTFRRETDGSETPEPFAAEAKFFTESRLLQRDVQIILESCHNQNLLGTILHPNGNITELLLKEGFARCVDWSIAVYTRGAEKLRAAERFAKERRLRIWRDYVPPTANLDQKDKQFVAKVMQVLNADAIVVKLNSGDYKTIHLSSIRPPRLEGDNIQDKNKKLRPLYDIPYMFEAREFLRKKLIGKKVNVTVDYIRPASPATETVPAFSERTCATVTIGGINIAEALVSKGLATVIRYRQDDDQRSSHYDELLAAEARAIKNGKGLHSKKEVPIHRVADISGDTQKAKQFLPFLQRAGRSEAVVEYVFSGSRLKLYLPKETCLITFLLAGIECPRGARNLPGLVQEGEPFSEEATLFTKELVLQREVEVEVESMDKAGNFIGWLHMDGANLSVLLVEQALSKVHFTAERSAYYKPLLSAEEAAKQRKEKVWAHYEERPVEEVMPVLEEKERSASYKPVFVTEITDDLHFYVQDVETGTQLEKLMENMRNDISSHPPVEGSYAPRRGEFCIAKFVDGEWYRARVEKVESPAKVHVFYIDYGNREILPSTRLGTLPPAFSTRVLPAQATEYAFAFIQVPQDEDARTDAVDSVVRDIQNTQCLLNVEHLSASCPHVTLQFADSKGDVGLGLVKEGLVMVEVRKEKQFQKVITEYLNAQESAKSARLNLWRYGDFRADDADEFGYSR

B1: murine TPM2: murine Mtdh triple mutant E396R, E397R, W398D (protein, UniProt Q80WJ7 1-579, looked up, variant E396R E397R W398D)
Protein LYRIC: MAARSWQDELAQQAEEGSARLRELLSVGLGFLRTELGLDLGLEPKRYPGWVILVGTGALGLLLLFLLGYGWAAACAGARKKRRSPPRKREEAAPPTPAPDDLAQLKNLRSEEQKKKNRKKLPEKPKPNGRTVEVPEDEVVRNPRSITAKQAPETDKKNEKSKKNKKKSKSDAKAVQNSSRHDGKEVDEGAWETKISHREKRQQRKRDKVLTDSGSLDSTIPGIENIITVTTEQLTTASFPVGSKKNKGDSHLNVQVSNFKSGKGDSTLQVSSRLNENLTVNGGGWSEKSVKLSSQLSEEKWNSVPPASAGKRKTEPSAWTQDTGDTNANGKDWGRNWSDRSIFSGIGSTAEPVSQSTTSDYQWDVSRNQPYIDDEWSGLNGLSSADPSSDWNAPARRDGNWVDEDRASLLKSQEPISNDQKVSDDDKEKGEGALPTGKSKKKKKKKKKQGEDNSHTQDTEDLEKDTREELPVNTSKARPKQEKACSLKTMSTSDPAEVLIKNSQPVKTLPPAISAEPSITLSKGDSDNSSSQVPPMLQDTDKPKSNAKQNSVPPSQTKSETNWESPKQIKKKKKARRET
B2: murine W401A: murine MTDH mutant W398A, corresponding to human W401A (protein)
chain: MAARSWQDELAQQAEEGSARLRELLSVGLGFLRTELGLDLGLEPKRYPGWVILVGTGALGLLLLFLLGYGWAAACAGARKKRRSPPRKREEAAPPTPAPDDLAQLKNLRSEEQKKKNRKKLPEKPKPNGRTVEVPEDEVVRNPRSITAKQAPETDKKNEKSKKNKKKSKSDAKAVQNSSRHDGKEVDEGAWETKISHREKRQQRKRDKVLTDSGSLDSTIPGIENIITVTTEQLTTASFPVGSKKNKGDSHLNVQVSNFKSGKGDSTLQVSSRLNENLTVNGGGWSEKSVKLSSQLSEEKWNSVPPASAGKRKTEPSAWTQDTGDTNANGKDWGRNWSDRSIFSGIGSTAEPVSQSTTSDYQWDVSRNQPYIDDEWSGLNGLSSADPSSDWNAPAEEAGNWVDEDRASLLKSQEPISNDQKVSDDDKEKGEGALPTGKSKKKKKKKKKQGEDNSHTQDTEDLEKDTREELPVNTSKARPKQEKACSLKTMSTSDPAEVLIKNSQPVKTLPPAISAEPSITLSKGDSDNSSSQVPPMLQDTDKPKSNAKQNSVPPSQTKSETNWESPKQIKKKKKARRET
B3: murine W394A: murine MTDH mutant W391A, corresponding to human W394A (protein)
chain: MAARSWQDELAQQAEEGSARLRELLSVGLGFLRTELGLDLGLEPKRYPGWVILVGTGALGLLLLFLLGYGWAAACAGARKKRRSPPRKREEAAPPTPAPDDLAQLKNLRSEEQKKKNRKKLPEKPKPNGRTVEVPEDEVVRNPRSITAKQAPETDKKNEKSKKNKKKSKSDAKAVQNSSRHDGKEVDEGAWETKISHREKRQQRKRDKVLTDSGSLDSTIPGIENIITVTTEQLTTASFPVGSKKNKGDSHLNVQVSNFKSGKGDSTLQVSSRLNENLTVNGGGWSEKSVKLSSQLSEEKWNSVPPASAGKRKTEPSAWTQDTGDTNANGKDWGRNWSDRSIFSGIGSTAEPVSQSTTSDYQWDVSRNQPYIDDEWSGLNGLSSADPSSDANAPAEEWGNWVDEDRASLLKSQEPISNDQKVSDDDKEKGEGALPTGKSKKKKKKKKKQGEDNSHTQDTEDLEKDTREELPVNTSKARPKQEKACSLKTMSTSDPAEVLIKNSQPVKTLPPAISAEPSITLSKGDSDNSSSQVPPMLQDTDKPKSNAKQNSVPPSQTKSETNWESPKQIKKKKKARRET

molecular target: T1, SND1; experiment: Anti-MTDH immunoprecipitation from PyMT;Mtdh−/− tumor cells reconstituted with murine MTDH; format: cell-based; settings: stably expressed in PyMT;Mtdh−/− tumor cells
Procedure: (FIG. 8A, FIG. 8E) Lysates from PyMT;Mtdh−/− MECs reconstituted with vector control, WT or mutant murine MTDH were immunoprecipitated with anti-MTDH antibody and immunoblotted for indicated proteins. (FIG. 8B, FIG. 8F) Mammosphere assays were performed with PyMT;Mtdh−/− pMECs reconstituted with indicated Mtdh constructs. (FIG. 8C, FIG. 8D, FIG. 8G, FIG. 8H) In vivo tumor formation (FIG. 8C, FIG. 8G for tumor incidence; FIG. 8D, FIG. 8H for tumor volumes) were performed at limiting numbers using PyMT;Mtdh−/− pMECs reconstituted with indicated WT or mutant MTDH. *Note: mouse W391D MTDH corresponds to human W394D MTDH; and mouse W398D MTDH corresponds to human W401D MTDH. Statistics: (FIG. 8B, […]) Student's t-test. (FIG. 8C, FIG. 8G) Limiting dilution analysis. (FIG. 8D, FIG. 8H) Mann-Whitney test. Data represent mean±SEM. ***p<0.001, **p<0.01, *p<0.05.
(FIG. 23A) Lysates from PyMT;Mtdh−/− tumor cells reconstituted with vector control, WT or mutant murine MTDH were immunoprecipitated with anti-MTDH antibody and immunoblotted for indicated proteins. Note all amino acid annotations are based on human MTDH. W394 and W401 of human MTDH correspond to W391 and W398 in murine MTDH, respectively. (FIG. 23B) Mammosphere assays were performed with PyMT;Mtdh−/− tumor cells reconstituted with indicated MTDH constructs. (FIG. 23C-E) In vivo tumor formation (FIG. 23C for tumor incidence; FIG. 23D, FIG. 23E for tumor volumes) were performed at limiting numbers using PyMT;Mtdh−/− tumor cells reconstituted with indicated WT or mutant MTDH. Statistics: (FIG. 23B) Student's t-test. Data represent mean±SEM. (FIG. 23C) Limiting dilution analysis. (FIG. 23D, FIG. 23E) Mann-Whitney test. **p<0.01, *p<0.05.
Immunoprecipitation and western blot For immunoprecipitation (IP) experiments, cultured cells were washed in cold PBS and lysed in lysis buffer (20 mM Tris pH 7.4, 0.15 M NaCl, 1 mM EDTA, 1 mM EGTA, 1% Tx-100, 0.0025 M Na2P2O7, 1 mM α-glycerolphosphate, 1 mM Na3VO4, and 1 mM NaF) with an EDTA-free protease inhibitor mixture (Roche Applied Science) and PMSF. Cell lysates were then incubated on ice for 10 min, centrifuged, and precleared by incubating with protein A/G beads (Santa Cruz Biotechnology) for 1 h at 4° C. For IP bead preparation, 30 μl of protein A/G beads were incubated with 5 μg of antibodies for 2 h at 4° C. IPs were carried out for overnight at 4° C., and beads were centrifuged, washed and subsequently boiled for 5 min in SDS protein loading buffer to elute bound protein. IP lysates were subjected to western blotting with indicated antibodies. […]

| Molecule | interaction of murine MTDH mutants with SND1 |
| --- | --- |
| B1 | lost the ability to interact with SND1 |
| B2 | completely lost the ability to interact with SND1 |
| B3 | completely lost the ability to interact with SND1 |
